The values that follow come from PMC6745501, “Plant photoreceptors and their signaling components compete for COP1 binding via VP peptide motifs” (The EMBO Journal, 2019).

To fix the notation:
B2: Arabidopsis COP1^349–675 WD40 domain (domain or fragment, UniProt P43254 349-675, looked up)
chain: TFTRYSRLRVIAEIRHGDIFHSANIVSSIEFDRDDELFATAGVSRCIKVFDFSSVVNEPADMQCPIVEMSTRSKLSCLSWNKHEKNHIASSDYEGIVTVWDVTTRQSLMEYEEHEKRAWSVDFSRTEPSMLVSGSDDCKVKVWCTRQEASVINIDMKANICCVKYNPGSSNYIAVGSADHHIHYYDLRNISQPLHVFSGHKKAVSYVKFLSNNELASASTDSTLRLWDVKDNLPVRTFRGHTNEKNFVGLTVNSEYLACGSETNEVYVYHKEITRPVTSHRFGSPDMDDAEEEAGSYFISAVCWKSDSPTMLTANSQGTIKVLVLAA
notes: COP1 (CONSTITUTIVELY PHOTOMORPHOGENIC 1) E3 ubiquitin ligase, Arabidopsis, WD40 domain, residues 349-675; also called COP1 WD40 domain; COP1 WD40; not shown: His10, N-terminal, cleaved; Twin-Strep, N-terminal, cleaved

What all share (conditions): both partners purified
Assay [1] has as its target T1, COP1^Tyr441Ala WD40 domain (Arabidopsis, UniProt P43254 349-675, Tyr441Ala).
T1 construct: COP1, Arabidopsis, WD40 domain (mutant of COP1 349-675), Tyr441Ala; not shown: His10, N-terminal, cleaved; Twin-Strep, N-terminal, cleaved
T1 sequence (looked up): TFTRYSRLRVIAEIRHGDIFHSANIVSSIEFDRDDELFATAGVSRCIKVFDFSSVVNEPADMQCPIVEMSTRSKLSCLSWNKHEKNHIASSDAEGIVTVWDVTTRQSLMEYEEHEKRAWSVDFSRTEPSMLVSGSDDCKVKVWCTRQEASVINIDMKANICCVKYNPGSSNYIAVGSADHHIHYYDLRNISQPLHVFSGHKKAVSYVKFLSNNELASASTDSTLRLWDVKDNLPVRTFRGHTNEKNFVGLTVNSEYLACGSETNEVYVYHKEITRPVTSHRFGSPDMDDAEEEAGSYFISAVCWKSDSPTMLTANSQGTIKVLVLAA
The experiment in a line: ITC; VP peptide (titrant, 500-3,000 μM) injected into COP1 WD40 in the cell at about 10-fold lower concentration; 150 mM NaCl, 20 mM HEPES 7.4, 2 mM BME; 25°C; one-site binding model.

The target in assay [2] is B2. The assay is described as above.
For assay [3], the target named is T2, COP1^349–675,Lys422Ala WD40 domain (Arabidopsis, UniProt P43254 349-675, Lys422Ala).
T2 construct: COP1, Arabidopsis, WD40 domain, residues 349-675, Lys422Ala; also called COP1^Lys422Ala; not shown: His10, N-terminal, cleaved; Twin-Strep, N-terminal, cleaved
T2 sequence (looked up): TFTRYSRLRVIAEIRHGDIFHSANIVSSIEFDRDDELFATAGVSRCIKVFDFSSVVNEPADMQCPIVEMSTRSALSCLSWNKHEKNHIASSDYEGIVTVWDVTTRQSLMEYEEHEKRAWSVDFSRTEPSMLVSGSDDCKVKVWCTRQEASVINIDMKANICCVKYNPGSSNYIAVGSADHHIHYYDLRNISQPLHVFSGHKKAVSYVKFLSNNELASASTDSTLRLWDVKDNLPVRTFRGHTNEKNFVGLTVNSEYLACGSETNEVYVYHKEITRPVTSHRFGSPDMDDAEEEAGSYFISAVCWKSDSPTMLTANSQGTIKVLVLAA
The description is as above.

For assay [4], the target named is T3, full‐length UVR8 (recombinant) (Arabidopsis, UniProt Q9FN03 1-440).
T3 construct: UV … LOCUS 8 (UVR8) UV-B photoreceptor, Arabidopsis, full length; Dimer in the ground state; monomerized by 60 min UV-B on ice where the assay says so; not shown: His10, N-terminal, cleaved; Twin-Strep, N-terminal, cleaved
T3 sequence (looked up): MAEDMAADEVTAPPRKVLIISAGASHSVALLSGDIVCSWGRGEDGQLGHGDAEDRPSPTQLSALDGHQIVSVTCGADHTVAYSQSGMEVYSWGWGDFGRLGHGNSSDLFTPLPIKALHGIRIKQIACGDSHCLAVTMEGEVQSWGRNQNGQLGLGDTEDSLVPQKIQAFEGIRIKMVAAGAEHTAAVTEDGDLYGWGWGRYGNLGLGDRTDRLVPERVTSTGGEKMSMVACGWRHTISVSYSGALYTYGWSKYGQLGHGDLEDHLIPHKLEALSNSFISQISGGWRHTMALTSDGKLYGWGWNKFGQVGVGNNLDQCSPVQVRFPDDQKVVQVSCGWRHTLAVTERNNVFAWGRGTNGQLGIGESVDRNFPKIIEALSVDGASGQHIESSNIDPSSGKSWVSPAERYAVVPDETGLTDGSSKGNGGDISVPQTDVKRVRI
The experiment in a line: not stated; non-photoactivated (ground-state) full-length UVR8 versus COP1 WD40; Appendix Fig S4A, not shown (ITC or GCI).

Assay [5] deals with T4, UVR8^ValPro/AlaAla (recombinant) (Arabidopsis, UniProt Q9FN03 1-440, ValPro/AlaAla).
T4 construct: UVR8, Arabidopsis, Val-Pro of the C-terminal VP motif mutated to Ala-Ala; compared with the wild type (full-length) protein, monomer ~50 kDa; also called the mutant photoreceptor; not shown: His10, N-terminal, cleaved; Twin-Strep, N-terminal, cleaved
T4 sequence (looked up): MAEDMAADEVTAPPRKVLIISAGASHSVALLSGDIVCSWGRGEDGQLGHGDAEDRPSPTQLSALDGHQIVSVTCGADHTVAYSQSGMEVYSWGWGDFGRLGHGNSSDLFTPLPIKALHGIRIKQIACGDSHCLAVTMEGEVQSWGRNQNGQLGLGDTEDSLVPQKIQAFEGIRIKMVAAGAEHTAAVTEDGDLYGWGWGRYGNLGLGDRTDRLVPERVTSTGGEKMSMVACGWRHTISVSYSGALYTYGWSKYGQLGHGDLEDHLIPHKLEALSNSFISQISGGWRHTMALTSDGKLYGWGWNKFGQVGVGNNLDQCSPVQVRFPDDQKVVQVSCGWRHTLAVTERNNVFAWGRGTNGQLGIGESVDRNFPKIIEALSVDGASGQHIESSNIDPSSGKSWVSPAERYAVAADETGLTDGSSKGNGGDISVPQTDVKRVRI
The experiment in a line: SEC; analytical SEC, Superdex 200 Increase 10/300 GL; ~4 μM of each protein mixed; UVR8 form pre-monomerized by UV-B; 150 mM NaCl, 20 mM HEPES 7.4, 2 mM BME; fractions on Coomassie-stained SDS-PAGE.

In assay [6] the target is T5, UVR8^12–381 β‐propeller core (Arabidopsis, UniProt Q9FN03 12-381).
T5 construct: also called UVR8 β‐propeller core; UVR8 core domain; not shown: His10, N-terminal, cleaved; Twin-Strep, N-terminal, cleaved
T5 sequence (looked up): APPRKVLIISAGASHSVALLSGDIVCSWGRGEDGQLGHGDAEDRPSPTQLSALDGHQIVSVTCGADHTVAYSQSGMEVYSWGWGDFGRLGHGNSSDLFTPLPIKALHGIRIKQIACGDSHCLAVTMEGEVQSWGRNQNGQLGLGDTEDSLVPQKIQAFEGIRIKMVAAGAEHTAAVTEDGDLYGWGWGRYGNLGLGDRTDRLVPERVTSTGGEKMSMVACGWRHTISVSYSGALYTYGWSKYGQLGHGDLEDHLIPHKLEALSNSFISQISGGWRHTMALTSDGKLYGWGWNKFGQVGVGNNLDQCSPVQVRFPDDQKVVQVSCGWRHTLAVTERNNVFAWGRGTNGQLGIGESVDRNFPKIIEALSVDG
The experiment in a line: not stated; UV-B-activated UVR8 forms versus COP1 WD40 and its mutants; Appendix Figs S4B, S4C, S6A, S6B, not shown (ITC or GCI).

B1: HY5^39–48 VP peptide (peptide, UniProt O24646 39-48, looked up)
peptide: EIRRVPEFGG
notes: ELONGATED HYPOCOTYL 5 (HY5) bZIP transcription factor, residues 39-48 (holds Arg41, Glu45); also called HY5 VP peptide; HY5 peptide; source: synthetic peptide (Peptide Specialty Labs GmbH)
Consider B1, for which the “stoichiometry N” value in assay [1] was determined as 0.92. For the same molecule, in assay [2], the Kd is roughly 20 µM and the “fold stronger binding than UVR8^406–413” value was roughly 8 fold. Further, the “stoichiometry N” value in assay [3] was 0.83.
Consider B2, for which the figures for the Kd in assay [4] and in assay [6] were roughly 1000 nM and roughly 500 nM, respectively. For the same molecule, the binding result in assay [5] was “binds”.
